This is an account of results in PMC3266742 (Molecular Cell, 2010).

For this test, the target named is ubiquitin (mono-Ub), untagged, purified (UniProt P0CG47 1-76). In words: NMR titration.

B1: 6xHis-tagged Doa1 β-Prp (domain or fragment, S. cerevisiae)
chain: GYQLSATLKGHDQDVRDVVAVDDSKVASVSRDGTVRLWSKDDQWLGTVVYTGQGFLNSVCYDSEKELLLFGGKDTMINGVPLFATSGEDPLYTLIGHQGNVCSLSFQDGVVISGSWDKTAKVWKEGSLVYNLQAHNASVWDAKVVSFSENKFLTASADKTIKLWQNDKVIKTFSGIHNDVVRHLAVVDDGHFISCSNDGLIKLVDMHTGDVLRTYEGHESFVYCIKLLPNGDIVSCGEDRTVRIWSKENGSLKQVITLPAISIWSVDCMSNGDIIVGSSDNLVRIFSQEKSRWASEDEI
In the case of B1, the Kd – broadly, the constant that tells how readily two partners part at equilibrium – is 224 µM.
